# Experimental data from patent publication US20250064890A1, “PROTEIN COMPOSITIONS FOR THE TREATMENT OF INFLAMMATORY DISEASES” (Unichem Laboratories Limited, priority 2021, published 2025).
# Read-outs that look alike come from different tables or passages of the source.
# Tests used:
# [1] = tested on: oral (buccal) mucosa cells (TR146); experiment: Annexin positive cell population against 5-FU damage; type: cell-based, human
# [2] = tested on: oral (buccal) mucosa cells (TR146); type: cell-based, human
# Experimental: The protective effect of the recombinant lectin on survival of TR146 cells against 5-FU induced damage was determined using following calculations:
# The viability of cells was determined as: % Cell viability=(100−% Cytotoxicity); • where, the percentage cytotoxicity corresponding to each treatment was calculated as: % Cytotoxicity=[(R−X)/R]*100, wherein X=Absorbance of cells treated with 5-FU or radiation damage/TI+5-FU, R=Absorbance of Control cells (Untreated) and Percentage protection was calculated as:
# {(Absorbance of TI+5-FU or radiation)−(Absorbance of 5-FU or radiation alone)/(Absorbance of Untreated)−(Absorbance of 5-FU alone)}*100
# NF-kB = experiment: Multiplex analysis, radiotherapy, TR146 cell lysates; type: cell-based, human
# Experimental: Oral buccal mucosal cells (TR146) cells were incubated overnight at 37° C. in 5% CO2 incubator. […] The cells were then stimulated with 5-FU (10 mM) for another 24h for chemotherapy and with gamma radiation (3.5 kGy) using Cobalt 60 for radiotherapy. After 24 h, cell culture supernatants were collected from each well and stored at −20° C. till multiplex analysis. For NF-kB estimations, cell lysates were prepared. Levels of biomarkers were estimated using Magpix® multiplex machine. The cells treated with Amifostine (along with 5-FU or radiation) were considered as positive control (PC). Untreated cells (5-FU or radiation alone treated) were used as negative control (NC).
# The percent modulation in each sample was determined as follows:
# [{Concentration of biomarkers (pg/ml) in Control cells (5-FU or radiation alone treated)−Concentration of biomarkers (pg/ml) in SEQ ID NO: 2+5-FU or radiation treated cells)}/Concentration of biomarkers (pg/ml) in Control cells (5-FU or radiation alone treated)]*100
# TNF-α = TNF-α in jugular mucosa (ELISA), 5-FU induced OM in hamsters; type: in vivo, golden Syrian hamsters; conditions: for TNF-α levels, % Decrease vs G2: G2 = OM + Vehicle
# Experimental: To induce OM, animals were administered (except normal control) 5-Fluorouracil (5-FU) by intraperitoneal route at doses of 60 mg/kg & 40 mg/kg respectively on first two days. On Day 4, under anesthesia, with aim of enhancing OM, mechanical irritation of the oral mucosa were done using wire brush. Treatment was initiated from Day 4 to Day 12. For group 3 animals 100 μl of vehicle comprising of standard drug Dexamethasone at 0.1 mg was instilled in buccal cheek pouch. For group 4, 5 and 6 animals 100 μl of vehicle comprising of SEQ ID NO. 2 at 0.25 mg, 0.5 mg & 1 mg, respectively was instilled in buccal cheek pouch. At the end of treatment period, cheek pouch of the hamsters was exposed, Mucositis scoring was carried out and images were captured. The animals were then humanely sacrificed, cheek pouch/jugular mucosa were isolated and used for biomarker estimation and histopathological investigation by using ELISA method and Hematoxylin and Eosin (H&E) staining, respectively.
# Further, for biomarker estimation jugular mucosa was dissected out, tissue weighed and stored in ice cold 1×PBS. 100 mg of tissue was taken and in 1 ml of 1×PBS buffer. Supernatant of homogenate was used for analysis of TNF-α and Interleukin-1β using ELISA method as per manufacturers instruction. The levels of TNF-α and Interleukin-1β are given in Table 13, FIG. 2 and Table 14, FIG. 3, respectively.
# [3] = tested on: oral (buccal) mucosa cells (TR146); experiment: Sub(G0/G1) cell population (cell cycle) against radiation induced damage; type: cell-based, human; conditions: for % Decrease in Apoptotic cells (with respect to control): Sub G0/G1
# Experimental: To determine the effect of test item on cell cycle, oral buccal mucosal cells (TR146) were incubated overnight in 5% CO2 incubator at 37° C. for 24 h. […] After 24 h of treatment, cells were exposed to chemotherapy (5-FU 10 mM) for 24 h or radiotherapy (Gamma radiation (3.5 kGy) using Cobalt 60) for 2 h.
# After incubation, cells were harvested by trypsinization and processed for Cell cycle assay. Accordingly, cells were harvested into prelabeled centrifuge tubes and centrifuged at 450 g for 5 min at room temperature (RT, low brake). The supernatants were removed carefully and discarded. 1 ml of 1× phosphate buffer saline (PBS) was added to the pellet and resuspended gently to make homogenous suspension. Cells were centrifuged at 450 g for 5 min, RT (low brake). The supernatant was carefully removed leaving behind approx. 100 μl of PBS. Cells were resuspended gently yet thoroughly in residual PBS. Ice-cold 70% ethanol (100 μl) was added drop-wise into cells in each tube while vortexing at low speed (fixation step). Cells stored at 4° C. for 24 h were centrifuged at 450 g for 5 min, RT (low brake). The supernatant was carefully removed without touching the pellet and discarded. 1 ml of 1×PBS was added into pellet and resuspended gently. Cells were incubated for 1 minute at RT. Cells were centrifuged at 450 g for 5 min, RT (low brake). The supernatant was removed carefully without touching the pellet, leaving behind approx. 20-50 μl of PBS. 200 μl of cell cycle reagent was added into each tube. Cells were resuspended gently and mixed. Cells were incubated for 30 min at RT in the dark. The stained samples were transferred into 96-well plates and acquired on flow cytometer (Guava technologies). Percentage of cells in Sub (G0/G1) phase were determined based on the concept that cell cycle reagent contains PI stain, which stains DNA of cells in different phases of cell cycle; Sub (G0/G1), G1, S, G2 and M. Cells in Sub (G0/G1) phase correspond to apoptotic cells. Percent inhibition in apoptotic cells is determined by the formula:
# =[(% Sub(G0/G1) cells in 5-FU/radiation alone)−(% Sub(G0/G1) cells in TI+5-FU/radiation)/% Sub(G0/G1) cells in 5-FU/radiation alone]*100
# [4] = 0.01 μg/ml + Radiation (3.5 kGy)
# [5] = 0.1 μg/ml + Radiation (3.5 kGy)
molecule,measurement,setting,value
"SEQ ID NO 2: recombinant lectin, variant of the S. rolfsii lectin amino acid sequence (reported as Rec-2 in WO 2010/095143) (protein) TYKITVRVYQTNPDAFFHPVEKTVWKYANGGTWTITDDQHVLTMGGSGTSGTLRFHADNGESFTATFGVHNYKRWCDIVTNLAADETGMVINQQYYSQKNREEARERQLSNYQVKNAKGRNFQIVYTEAEGNDLHANLIIG",% Apoptotic cells (Annexin +ve),[1]; 0.01 μg/ml + 5FU (10 mM),3%
same,% Decrease in Apoptotic cells (with respect to 5-FU),[1]; 0.01 μg/ml + 5FU (10 mM),81.7%
same,% Apoptotic cells (Annexin +ve),[1]; 1 μg/ml + 5FU (10 mM),3.1%
same,% Decrease in Apoptotic cells (with respect to 5-FU),[1]; 1 μg/ml + 5FU (10 mM),81.1%
same,% Apoptotic cells (Annexin +ve),[1]; 10 μg/ml + 5FU (10 mM),8%
same,% Decrease in Apoptotic cells (with respect to 5-FU),[1]; 10 μg/ml + 5FU (10 mM),51.5%
same,% Apoptotic cells (Annexin +ve),[1]; 50 μg/ml + 5FU (10 mM),19.3%
same,% Decrease in Apoptotic cells (with respect to 5-FU),[1]; 50 μg/ml + 5FU (10 mM),−17.4%
same,% Apoptotic cells (Annexin +ve),[1]; 100 μg/ml + 5FU (10 mM),26%
same,% Decrease in Apoptotic cells (with respect to 5-FU),[1]; 100 μg/ml + 5FU (10 mM),−58.5%
same,% Protection,[2]; [4],2.5%
same,maximum cytoprotection,"[2]; 0.01 μg/ml-25 μg/ml, radiation",54.1%
same,% Protection,[2]; [5],14.1%
same,% Protection,[2]; 1 μg/ml + Radiation (3.5 kGy),47.4%
same,% Protection,[2]; 10 μg/ml + Radiation (3.5 kGy),54.1%
same,% Protection,[2]; 25 μg/ml + Radiation (3.5 kGy),8.9%
same,Percentage Inhibition NF-kB,NF-kB; [4],11.8%
same,Percentage Inhibition NF-kB,NF-kB; [5],9.9%
same,Percentage Inhibition NF-kB,NF-kB; 1 μg/ml + Radiation (3.5 kGy),9.9%
same,Percentage Inhibition NF-kB,NF-kB; 10 μg/ml + Radiation (3.5 kGy),4%
same,Percentage Inhibition NF-kB,NF-kB; 25 μg/ml + Radiation (3.5 kGy),−4%
same,"TNF-α levels, Mean","TNF-α; G4, 0.25 mg/Animal",153.48 pg/mL
same,"TNF-α levels, % Decrease vs G2","TNF-α; G4, 0.25 mg/Animal",−23.77%
same,"TNF-α levels, Mean","TNF-α; G5, 0.5 mg/Animal",155.76 pg/mL
same,"TNF-α levels, % Decrease vs G2","TNF-α; G5, 0.5 mg/Animal",−25.61%
same,"TNF-α levels, Mean","TNF-α; G6, 1 mg/Animal",79.37 pg/mL
same,"TNF-α levels, % Decrease vs G2","TNF-α; G6, 1 mg/Animal",36.00%
same,levels of TNF-α as compared to the untreated subjects,"TNF-α; hamsters suffering from OM, in words",reduction
same,% Apoptotic cells (Sub G0/G1),[3]; [4],15.2%
same,% Decrease in Apoptotic cells (with respect to control),[3]; [4],56.9%
same,% Apoptotic cells (Sub G0/G1),[3]; [5],14.3%
same,% Decrease in Apoptotic cells (with respect to control),[3]; [5],59.5%
same,% Apoptotic cells (Sub G0/G1),[3]; 1 μg/ml + Radiation (3.5 kGy),22.3%
same,% Decrease in Apoptotic cells (with respect to control),[3]; 1 μg/ml + Radiation (3.5 kGy),36.9%
same,% Apoptotic cells (Sub G0/G1),[3]; 10 μg/ml + Radiation (3.5 kGy),35.7%
same,% Decrease in Apoptotic cells (with respect to control),[3]; 10 μg/ml + Radiation (3.5 kGy),−1.3%
